Primed or numbered codes have the meaning given here. Where no end group is shown, it is not given here. [ ]: non-standard residue; d: D form. Pro(cis-4-F) = O=C(O)[C@@H]1C[C@H](F)CN1; Pro(4,4-Me2) = CC1(C)CN[C@H](C(=O)O)C1; Asu′ = aspartimide (aminosuccinimide); Hyp = O=C(O)[C@@H]1C[C@@H](O)CN1
What was measured:
[1] = tested on: IL-6 secretion, Raw 264.7 cells; experiment: Anti-inflammatory efficacy: IL-6 ELISA in LPS-stimulated Raw 264.7 macrophages; assay type: cell-based, mouse; conditions: for IL-6 level increased by LPS: 1 h pretreatment, LPS 1 μg/ml 24 h; for anti-inflammatory activity by regulating the secretion of IL-6: summary, concentration not given
Procedure: (§1) An anti-inflammatory efficacy was evaluated for representative examples of the above examples. Specifically, in order to confirm whether Examples 10, 32, 41, 55, 59 and 91, which are representative examples of 5 amino acid residues, Examples 11 and 30, which are representative examples of 6 amino acid residues, Example 86, which is a representative example of 7 amino acid residues, and Examples 103 and 104, which are representative examples of 8 amino acid residues, have an anti-inflammatory effect, a change in the secretion amount of inflammatory cytokines was confirmed by enzyme-linked immunosorbent assay (ELISA) using Raw 264.7 cells, which are macrophage (monocyte) cell lines.
(§2) Specifically, the Examples were diluted in Raw264.7 cells (Korean Cell Line Bank, 40071) at a concentration of 10 nM, 100 nM, 1 μM, and 10 μM, respectively, and pretreated for 1 hour, and then LPS (Sigma, L6529) at a concentration of 1 μg/ml was added to induce an inflammatory response. After 24 hours of induction, the cell culture supernatant was collected and analyzed. Enzyme-linked immunosorbent assay was performed using Mouse IL-6 Quantikine ELISA Kit (R&D systems, M6000B), TNF-alpha Quantikine ELISA Kit (R&D systems, MTA00B), Mouse IL-1 beta/IL-1F2 Quantikine ELISA Kit (R&D systems, MLB00C) in accordance with the manufacturer's manual.

[2] = Evaluation of dissolution stability (content change on storage in dissolved state); assay type: physicochemical; conditions: 1 mg/1 ml dissolved state, 40° C. and RH 75%
[3] = tested on: IL-1β secretion, Raw 264.7 cells; experiment: Anti-inflammatory efficacy: IL-1β ELISA in LPS-stimulated Raw 264.7 macrophages; assay type: cell-based, mouse; conditions: for IL-1β level increased by LPS: 1 h pretreatment, LPS 1 μg/ml 24 h; for anti-inflammatory effect by regulating the secretion of IL-1β: summary, concentration not given
Procedure: as §1, §2

[4] = tested on: TNFα secretion, Raw 264.7 cells; experiment: Anti-inflammatory efficacy: TNFα ELISA in LPS-stimulated Raw 264.7 macrophages; assay type: cell-based, mouse; conditions: for TNFα level increased by LPS: 1 h pretreatment, LPS 1 μg/ml 24 h; for anti-inflammatory activity by regulating the secretion of TNFα: summary, concentration not given
Procedure: as §1, §2

| Substance | IL-6 level increased by LPS ([1]; 1 μM peptide) | anti-inflammatory activity by regulating the secretion of IL-6 [1] | Day 1 content (%) [2] | Day 3 content (%) [2] | Day 7 content (%) [2] | Initial content (%) [2] | IL-1β level increased by LPS ([3]; 100 nM peptide) | anti-inflammatory effect by regulating the secretion of IL-1β [3] | TNFα level increased by LPS ([4]; 10 nM peptide) | TNFα level increased by LPS ([4]; 1 μM peptide) | anti-inflammatory activity by regulating the secretion of TNFα [4] | IL-1β level increased by LPS ([3]; 1 μM peptide) | IL-1β level increased by LPS ([3]; 10 nM peptide) | TNFα level increased by LPS ([4]; 10 μM peptide) | IL-1β level increased by LPS ([3]; 10 μM peptide) | IL-6 level increased by LPS ([1]; 10 nM peptide) |
| --- | --- | --- | --- | --- | --- | --- | --- | --- | --- | --- | --- | --- | --- | --- | --- | --- |
| cis-4F-Pro-Gly-Gln-Asp-Gly ([Pro(cis-4-F)]GQDG) [Example 41] | significantly reduced | significant anti-inflammatory activity | 93.20% | 91.07% | 85.34% | 96.95% | significantly reduced | significant anti-inflammatory effect |  |  |  |  |  |  |  |  |
| Hyp-Gly-Gln-Asp-Gly ([Hyp]GQDG) [Example 10] |  |  |  | 86.65% | 78.68% | 98.76% | significantly reduced | significant anti-inflammatory effect | significantly reduced | significantly reduced | significant anti-inflammatory activity | significantly reduced |  |  |  |  |
| Gln-Asu-Gly-Leu-Ala-Gly-Pro-Lys (Q[Asu′]GLAGPK) [Example 104] |  |  | 96.52% | 93.78% | 93.01% | 94.22% |  |  | significantly reduced |  | significant anti-inflammatory activity |  |  |  |  |  |
| Hyp-Gly-Gln-Asu-Gly-Leu-Ala-Gly ([Hyp]GQ[Asu′]GLAG) [Example 103] |  |  | 97.20% | 96.90% | 94.88% | 97.09% |  | significant anti-inflammatory effect |  |  |  | significantly reduced |  |  |  |  |
| 4,4-dimethyl Pro-Gly-Gln-Asp-Gly ([Pro(4,4-Me2)]GQDG) [Example 55] |  |  | 94.34% | 90.29% | 81.00% | 97.82% | significantly reduced | significant anti-inflammatory effect |  |  |  |  |  |  |  |  |
| Hyp-Gly-Gln-Asp-Leu ([Hyp]GQDL) [Example 32] |  | significant anti-inflammatory activity | 96.81% | 93.57% | 90.50% | 98.05% | significantly reduced | significant anti-inflammatory effect |  |  |  | significantly reduced | significantly reduced |  |  |  |
| Hyp-Gly-Gln-Asp-Gly-Leu ([Hyp]GQDGL) [Example 11] |  |  | 91.37% | 81.21% | 64.19% | 98.96% |  |  |  |  | significant anti-inflammatory activity |  |  | significantly reduced |  |  |
| Hyp-Gly-Gln-Glu-Val ([Hyp]GQEV) [Example 91] | significantly reduced | significant anti-inflammatory activity | 99.10% | 98.74% | 98.68% | 99.08% | reduced | significant anti-inflammatory effect |  |  |  | reduced | reduced |  | reduced |  |
| Hyp-Gly-Gln-D Asp-Gly ([Hyp]GQ[dD]G) [Example 59] |  |  | 98.78% | 98.76% | 98.75% | 98.78% | significantly reduced | significant anti-inflammatory effect |  |  | significant anti-inflammatory activity |  |  |  |  |  |
| QDGLAG [Example 30] |  | significant anti-inflammatory activity | 95.61% | 94.27% | 91.57% | 96.44% |  |  |  |  |  |  |  |  |  | significantly reduced |

Reference: patent US12428446B2, “Peptide compound or pharmaceutically acceptable salt thereof” (Eyebio Korea, priority 2019, dated 2025)
